# Where “and” joins values, the source holds several entries; their conditions need not be identical. Equal entries are not always repeated.
# How the values were obtained:
# [1] = molecular target: chemokine receptor C-C CKR-5 (human) (human) (UniProt P51681); assay: 125I-MIP-1β (0.1 nM) competition on activated CD4+ T cells; gp120 at 20 µg/ml
# [2] = molecular target: chemokine receptor C-C CKR-5 (human) (human) (UniProt P51681); assay: 125I-MIP-1β (0.1 nM) competition on activated CD4+ T cells; gp120 at 0.1 µg/ml
# [3] = molecular target: chemokine receptor C-C CKR-5 (human) (human) (UniProt P51681); assay: 125I-MIP-1β (0.1 nM) competition on activated CD4+ T cells; gp120 at 0.2 µg/ml
# [4] = molecular target: chemokine receptor C-C CKR-5 (human) (human) (UniProt P51681); assay: 125I-MIP-1β (0.1 nM) competition on activated CD4+ T cells; gp120 at .05 µg/ml [sic]
# [5] = molecular target: recombinant, monomeric JR-FL gp120 (full-length) (HIV-1 JR-FL) (UniProt P20871); assay: JR-FL gp120 (2 µg/ml) against 125I-MIP-1β on activated CD4+ T cells; antibody at 20 µg/ml
# [6] = molecular target: CD4 on the cell surface (human) (human) (UniProt P01730); assay: cell-based or functional assay
# [7] = molecular target: chemokine receptor C-C CKR-5 (human) (human) (UniProt P51681); assay: 125I-MIP-1β (0.1 nM) competition on activated CD4+ T cells; gp41 at 5 µg/ml
# [8] = molecular target: CCR5 D11A, HA-tagged (human) (UniProt P51681); assay: cell-based or functional assay
# [9] = molecular target: CCR5 D2A, HA-tagged (human) (UniProt P51681); assay: cell-based or functional assay
# [10] = molecular target: CCR5 D95A, HA-tagged (human) (UniProt P51681); assay: cell-based or functional assay
# [11] = molecular target: CCR5 E18A, HA-tagged (human) (UniProt P51681); assay: cell-based or functional assay
# [12] = molecular target: CCR5 E262A, HA-tagged (human) (UniProt P51681); assay: cell-based or functional assay
# [13] = molecular target: CCR5 H175A, HA-tagged (human) (UniProt P51681); assay: cell-based or functional assay
# [14] = molecular target: CCR5 H181A, HA-tagged (human) (UniProt P51681); assay: cell-based or functional assay
# [15] = molecular target: CCR5 K171A/E172A, HA-tagged (human) (UniProt P51681); assay: cell-based or functional assay
# [16] = molecular target: CCR5 K191A/N192A, HA-tagged (human) (UniProt P51681); assay: cell-based or functional assay
# [17] = molecular target: CCR5 K22A, HA-tagged (human) (UniProt P51681); assay: cell-based or functional assay
# [18] = molecular target: CCR5 K26A, HA-tagged (human) (UniProt P51681); assay: cell-based or functional assay
# [19] = molecular target: CCR5 N13A, HA-tagged (human) (UniProt P51681); assay: cell-based or functional assay
# [20] = molecular target: CCR5 Q102A, HA-tagged (human) (UniProt P51681); assay: cell-based or functional assay
# [21] = molecular target: CCR5 Q188A, HA-tagged (human) (UniProt P51681); assay: cell-based or functional assay
# [22] = molecular target: CCR5 Q93A, HA-tagged (human) (UniProt P51681); assay: cell-based or functional assay
# [23] = molecular target: CCR5 R274A/D276A, HA-tagged (human) (UniProt P51681); assay: cell-based or functional assay
# [24] = molecular target: CCR5 R31A, HA-tagged (human) (UniProt P51681); assay: cell-based or functional assay
# [25] = molecular target: CCR5 Y184A, HA-tagged (human) (UniProt P51681); assay: cell-based or functional assay
# [26] = molecular target: chemokine receptor C-C CKR-5 (human) (human) (UniProt P51681); assay: cell-based or functional assay
# [27] = molecular target: wild-type CCR5, HA-tagged at the C-terminus (human) (UniProt P51681); assay: cell-based or functional assay
# [28] = molecular target: wild-type CCR5, HA-tagged at the C-terminus (human) (UniProt P51681)
# [29] = molecular target: chemokine receptor C-C CKR-5 (human) (human) (UniProt P51681); assay: 125I-MIP-1β (0.1 nM) competition on activated CD4+ T cells; gp120 at 5 µg/ml
# [30] = molecular target: chemokine receptor C-C CKR-5 (human) (human) (UniProt P51681); assay: 125I-MIP-1β (0.1 nM) competition on activated CD4+ T cells; gp120 at 50 µg/ml
# [31] = molecular target: chemokine receptor C-C CKR-5 (human) (human) (UniProt P51681); assay: 125I-MIP-1β competition, CD4- CCR-5+ 293 cells against activated CD4+ T cells
# [32] = molecular target: chemokine receptor C-C CKR-5 (human) (human) (UniProt P51681); assay: 125I-MIP-1β competition on CD4- CCR-5+ 293 cells; gp120 at 50 µg/ml; strongest competition observed
# [33] = molecular target: CCR5 D2A/D11A/E18A, HA-tagged (human) (UniProt P51681); assay: cell-based or functional assay
# [34] = molecular target: HIV-1 JR-FL envelope glycoproteins (membrane-bound gp120/gp41) (HIV-1 JR-FL); assay: cell-based or functional assay
substance,measurement,setting,value
W61D gp120,percentage inhibition of 125I-MIP-1β binding,[1],86%
same,percentage inhibition of 125I-MIP-1β binding,[2],39%
same,percentage inhibition of 125I-MIP-1β binding,[3],53%
same,percentage inhibition of 125I-MIP-1β binding,[4],65%
monoclonal antibody 48d,Inhibition (%) of the gp120 competitive effect on 125I-MIP-1β binding,[5],54%
CD4 MAb OKT4a (antibody),"% Fusion (RET), LW5 CD4+ cells with HeLa-BRU cells, OKT4A at 3 ug/ml",[6],0%
same,"% Fusion (RET), LW5 CD4+ cells with HeLa-JR-FL cells, OKT4A at 3 ug/ml",[6],0%
recombinant gp41 (IIIB) ectodomain,percentage inhibition of 125I-MIP-1β binding,[7],24%
"MIP-1α, recombinant human (from UniProt P10147 27-92) (ligand)",relative % inhibition of NLluc/JR-FL entry into U87MG-CD4 cells by 2 µg/ml chemokine (wild-type = 100),[8],10%
same,relative % inhibition of NLluc/JR-FL entry into U87MG-CD4 cells by 2 µg/ml chemokine (wild-type = 100),[9],81%
same,relative % inhibition of NLluc/JR-FL entry into U87MG-CD4 cells by 2 µg/ml chemokine (wild-type = 100),[10],107%
same,relative % inhibition of NLluc/JR-FL entry into U87MG-CD4 cells by 2 µg/ml chemokine (wild-type = 100),[11],100%
same,relative % inhibition of NLluc/JR-FL entry into U87MG-CD4 cells by 2 µg/ml chemokine (wild-type = 100),[12],100%
same,relative % inhibition of NLluc/JR-FL entry into U87MG-CD4 cells by 2 µg/ml chemokine (wild-type = 100),[13],119%
same,relative % inhibition of NLluc/JR-FL entry into U87MG-CD4 cells by 2 µg/ml chemokine (wild-type = 100),[14],29%
same,relative % inhibition of NLluc/JR-FL entry into U87MG-CD4 cells by 2 µg/ml chemokine (wild-type = 100),[15],21%
same,relative % inhibition of NLluc/JR-FL entry into U87MG-CD4 cells by 2 µg/ml chemokine (wild-type = 100),[16],14%
same,relative % inhibition of NLluc/JR-FL entry into U87MG-CD4 cells by 2 µg/ml chemokine (wild-type = 100),[17],19%
same,relative % inhibition of NLluc/JR-FL entry into U87MG-CD4 cells by 2 µg/ml chemokine (wild-type = 100),[18],100%
same,relative % inhibition of NLluc/JR-FL entry into U87MG-CD4 cells by 2 µg/ml chemokine (wild-type = 100),[19],121%
same,relative % inhibition of NLluc/JR-FL entry into U87MG-CD4 cells by 2 µg/ml chemokine (wild-type = 100),[20],107%
same,relative % inhibition of NLluc/JR-FL entry into U87MG-CD4 cells by 2 µg/ml chemokine (wild-type = 100),[21],95%
same,relative % inhibition of NLluc/JR-FL entry into U87MG-CD4 cells by 2 µg/ml chemokine (wild-type = 100),[22],88%
same,relative % inhibition of NLluc/JR-FL entry into U87MG-CD4 cells by 2 µg/ml chemokine (wild-type = 100),[23],48%
same,relative % inhibition of NLluc/JR-FL entry into U87MG-CD4 cells by 2 µg/ml chemokine (wild-type = 100),[24],-5%
same,relative % inhibition of NLluc/JR-FL entry into U87MG-CD4 cells by 2 µg/ml chemokine (wild-type = 100),[25],102%
same,"% Fusion (RET), LW5 CD4+ cells with HeLa-JR-FL cells, chemokine at 533 ng/ml",[26],72%
same,"% Fusion (RET), PM1 cells with HeLa-JR-FL cells, chemokine at 400 ng/ml",[26],39%
same,"% luciferase activity, entry of ADA env-complemented virus into PM1 cells, chemokine at 100 ng/ml",[26],54%
same,"% luciferase activity, entry of BaL env-complemented virus into PM1 cells, chemokine at 100 ng/ml",[26],54%
same,relative % inhibition of NLluc/JR-FL entry into U87MG-CD4 cells by 2 µg/ml chemokine (wild-type = 100),[27],100%
"recombinant, monomeric JR-FL gp120 (full-length), P20871 32-503 (other; other documents disagree on this pair)",inhibition of 2D7-PE binding (%),[28],70%
same,percentage inhibition of 125I-MIP-1β binding,[29],67%
same,percentage inhibition of 125I-MIP-1β binding,[1],91%
same,percentage inhibition of 125I-MIP-1β binding,[30],95%
same,percentage inhibition of 125I-MIP-1β binding,[2],44%
same,percentage inhibition of 125I-MIP-1β binding,[3],40%
same,fold higher gp120 concentration needed on CD4- cells than on CD4+ cells,[31],> 100 fold
same,percentage inhibition of 125I-MIP-1β binding,[4],58%
same,percent inhibition of MIP-1β binding,[32],73%
antibody D7324,Inhibition (%) of the gp120 competitive effect on 125I-MIP-1β binding,[5],-13%
HIV-1 JR-FL envelope glycoproteins (membrane-bound gp120/gp41),"co-receptor function of CCR5 (HIV-1 entry, luciferase), fold reduction",[33],50 fold
same,"co-receptor function of CCR5 (HIV-1 entry, luciferase), fold reduction",[11],15 fold and 20 fold
monoclonal antibody A32,Inhibition (%) of the gp120 competitive effect on 125I-MIP-1β binding,[5],51%
"soluble, oligomeric JR-FL gp120/gp41 complex",percentage inhibition of 125I-MIP-1β binding,[2],46%
same,percentage inhibition of 125I-MIP-1β binding,[3],56%
same,percentage inhibition of 125I-MIP-1β binding,[4],84%
synthetic ECL2 peptide of human CCR5 (from UniProt P51681 168-199),"inhibition of fusion between HeLa-envJR-FL cells and PM1 cells (RET), peptide at 11 µg/ml",[34],15%
same,"inhibition of fusion between HeLa-envJR-FL cells and PM1 cells (RET), peptide at 33 µg/ml",[34],65%
same,"inhibition of fusion between HeLa-envJR-FL cells and PM1 cells (RET), peptide at 100 µg/ml",[34],97%
monoclonal antibody IgG1b12,Inhibition (%) of the gp120 competitive effect on 125I-MIP-1β binding,[5],125%
monoclonal antibody 17b,Inhibition (%) of the gp120 competitive effect on 125I-MIP-1β binding,[5],79%
SF170 gp120,percentage inhibition of 125I-MIP-1β binding,[2],87%
same,percentage inhibition of 125I-MIP-1β binding,[3],140%
"soluble, oligomeric 92RW020 gp120/gp41 complex",percentage inhibition of 125I-MIP-1β binding,[2],21%
same,percentage inhibition of 125I-MIP-1β binding,[3],49%
same,percentage inhibition of 125I-MIP-1β binding,[4],74%
monoclonal antibody 15e,Inhibition (%) of the gp120 competitive effect on 125I-MIP-1β binding,[5],65%
92TH014 gp120 (monomeric),percentage inhibition of 125I-MIP-1β binding,[2],6%
same,percentage inhibition of 125I-MIP-1β binding,[3],57%
same,percentage inhibition of 125I-MIP-1β binding,[4],65%
monoclonal antibody 19b,Inhibition (%) of the gp120 competitive effect on 125I-MIP-1β binding,[5],88%
"recombinant, monomeric LAI gp120 (full-length) (from UniProt P03377 33-516) (other; other documents disagree on this pair)",percentage inhibition of 125I-MIP-1β binding,[29],-5%
same,percentage inhibition of 125I-MIP-1β binding,[1],-18%
same,percentage inhibition of 125I-MIP-1β binding,[30],-6%
same,percentage inhibition of 125I-MIP-1β binding,[4],-1%
monoclonal antibody 697-D,Inhibition (%) of the gp120 competitive effect on 125I-MIP-1β binding,[5],3%
CM243 gp120,percentage inhibition of 125I-MIP-1β binding,[1],76%
same,percentage inhibition of 125I-MIP-1β binding,[2],17%
same,percentage inhibition of 125I-MIP-1β binding,[3],40%
same,percentage inhibition of 125I-MIP-1β binding,[4],56%
monoclonal antibody 2G12,Inhibition (%) of the gp120 competitive effect on 125I-MIP-1β binding,[5],38%
monoclonal antibody 447-D,Inhibition (%) of the gp120 competitive effect on 125I-MIP-1β binding,[5],109%

# From US20040086528A1
